From US20240270821A1, “GIP/GLP1/GCG TRI-RECEPTOR AGONISTS AND USES THEREOF” (priority 2023, published 2024)
Numbering of substitutions follows the chain as printed.

B1: Example 1203 (peptide)
chain: YXQATXTSDXXIXLDXKAQXEFIEXLIEGGPSSGAPPPSGS
modifications: synthetic construct; SITE 2: note = 2-Aminoisobutyric Acid; SITE 4: note = D-amino acid; SITE 6: note = alpha-methyl-2-fluoro-L-phenylalanine; SITE 10: note = 3-(4-Pyridyl)-L-alanine; SITE 11: note = alpha-methyl-L-serine; SITE 13: note = alpha-methyl-leucine; SITE 16: note = L-ornithine; SITE 17: n
B2: Example 1208 (peptide)
chain: B1 chain with A4G, A35E
modifications: not fully specified; synthetic construct; SITE 2: note = 2-Aminoisobutyric Acid; SITE 6: note = alpha-methyl-2-fluoro-L-phenylalanine; SITE 10: note = 3-(4-Pyridyl)-L-alanine; SITE 11: note = alpha-methyl-L-serine; SITE 13: note = alpha-methyl-leucine; SITE 16: note = L-ornithine; SITE 17: note = Lysine is chemically mo
B3: Example 1196 (peptide)
chain: YXQGTXTSDXXIXLDXKAQXEFIEXLIEGGPPSXXPPPXSE
modifications: non-natural residues; lipidated Lys AEEA-γGlu-C18 diacid; C-term amide; synthetic construct; SITE 2: note = 2-Aminoisobutyric Acid; SITE 6: note = alpha-methyl-2-fluoro-L-phenylalanine; SITE 10: note = 3-(4-Pyridyl)-L-alanine; SITE 11: note = alpha-methyl-L-serine; SITE 13: note = alpha-methyl-leucine; SITE 16: note = L-ornithine; SITE 17: note = Lysine is chemically mo
B4: Example 1191 (peptide)
chain: B3 chain with X34G, X35E, X39E, S40G
modifications: non-natural residues; lipidated Lys AEEA-γGlu-C18 diacid; C-term amide; synthetic construct; SITE 2: note = 2-Aminoisobutyric Acid; SITE 6: note = alpha-methyl-2-fluoro-L-phenylalanine; SITE 10: note = 3-(4-Pyridyl)-L-alanine; SITE 11: note = alpha-methyl-L-serine; SITE 13: note = alpha-methyl-leucine; SITE 16: note = L-ornithine; SITE 17: note = Lysine is chemically mo
B5: Example 1190 (peptide)
chain: B3 chain with X35E, X39E, S40G
modifications: non-natural residues, acylated Lys, C-terminal amide; synthetic construct; SITE 2: note = 2-Aminoisobutyric Acid; SITE 6: note = alpha-methyl-2-fluoro-L-phenylalanine; SITE 10: note = 3-(4-Pyridyl)-L-alanine; SITE 11: note = alpha-methyl-L-serine; SITE 13: note = alpha-methyl-leucine; SITE 16: note = L-ornithine; SITE 17: note = Lysine is chemically mo
B6: Example 1195 (peptide)
chain: B3 chain with S40G
modifications: non-natural residues; acylated Lys; C-terminal amide; synthetic construct; SITE 2: note = 2-Aminoisobutyric Acid; SITE 6: note = alpha-methyl-2-fluoro-L-phenylalanine; SITE 10: note = 3-(4-Pyridyl)-L-alanine; SITE 11: note = alpha-methyl-L-serine; SITE 13: note = alpha-methyl-leucine; SITE 16: note = L-ornithine; SITE 17: note = Lysine is chemically mo
B7: Example 1194 (peptide)
chain: B3 chain with X39E, S40G
modifications: non-natural residues; lipidated Lys; C-terminal amide; synthetic construct; SITE 2: note = 2-Aminoisobutyric Acid; SITE 6: note = alpha-methyl-2-fluoro-L-phenylalanine; SITE 10: note = 3-(4-Pyridyl)-L-alanine; SITE 11: note = alpha-methyl-L-serine; SITE 13: note = alpha-methyl-leucine; SITE 16: note = L-ornithine; SITE 17: note = Lysine is chemically mo
B8: Example 1192 (peptide)
chain: B1 chain with A4G, G34X, S39E, S41E
modifications: non-natural residues; AEEA-γGlu-C18 diacid on Lys; C-terminal amide; synthetic construct; SITE 2: note = 2-Aminoisobutyric Acid; SITE 6: note = alpha-methyl-2-fluoro-L-phenylalanine; SITE 10: note = 3-(4-Pyridyl)-L-alanine; SITE 11: note = alpha-methyl-L-serine; SITE 13: note = alpha-methyl-leucine; SITE 16: note = L-ornithine; SITE 17: note = Lysine is chemically mo
B9: Example 1193 (peptide)
chain: B3 chain with X35E, S40G
modifications: non-natural residues (Aib, αMeF(2F), 4Pal, Orn, Me4Pal); lipidated Lys; C-amide; synthetic construct; SITE 2: note = 2-Aminoisobutyric Acid; SITE 6: note = alpha-methyl-2-fluoro-L-phenylalanine; SITE 10: note = 3-(4-Pyridyl)-L-alanine; SITE 11: note = alpha-methyl-L-serine; SITE 13: note = alpha-methyl-leucine; SITE 16: note = L-ornithine; SITE 17: note = Lysine is chemically mo
B10: Example 1198 (peptide)
chain: YXQGTXTSDXXIXLDXKAQXEFIEXLIEGGPPSXXPPPSGSE
modifications: non-natural residues; lysine acylated AEEA-γGlu-C18 diacid; C-terminal amide; synthetic construct; SITE 2: note = 2-Aminoisobutyric Acid; SITE 6: note = alpha-methyl-2-fluoro-L-phenylalanine; SITE 10: note = 3-(4-Pyridyl)-L-alanine; SITE 11: note = alpha-methyl-L-serine; SITE 13: note = alpha-methyl-leucine; SITE 16: note = L-ornithine; SITE 17: note = Lysine is chemically mo
B11: Example 1200 (peptide)
chain: B10 chain with X35E
modifications: non-natural residues, acylated Lys (AEEA-γGlu-C18 diacid), C-terminal amide; synthetic construct; SITE 2: note = 2-Aminoisobutyric Acid; SITE 6: note = alpha-methyl-2-fluoro-L-phenylalanine; SITE 10: note = 3-(4-Pyridyl)-L-alanine; SITE 11: note = alpha-methyl-L-serine; SITE 13: note = alpha-methyl-leucine; SITE 16: note = L-ornithine; SITE 17: note = Lysine is chemically mo

molecular target: human glucagon receptor (human) (UniProt P47871); test: cell-based or functional assay
Sequence (P47871 26-477): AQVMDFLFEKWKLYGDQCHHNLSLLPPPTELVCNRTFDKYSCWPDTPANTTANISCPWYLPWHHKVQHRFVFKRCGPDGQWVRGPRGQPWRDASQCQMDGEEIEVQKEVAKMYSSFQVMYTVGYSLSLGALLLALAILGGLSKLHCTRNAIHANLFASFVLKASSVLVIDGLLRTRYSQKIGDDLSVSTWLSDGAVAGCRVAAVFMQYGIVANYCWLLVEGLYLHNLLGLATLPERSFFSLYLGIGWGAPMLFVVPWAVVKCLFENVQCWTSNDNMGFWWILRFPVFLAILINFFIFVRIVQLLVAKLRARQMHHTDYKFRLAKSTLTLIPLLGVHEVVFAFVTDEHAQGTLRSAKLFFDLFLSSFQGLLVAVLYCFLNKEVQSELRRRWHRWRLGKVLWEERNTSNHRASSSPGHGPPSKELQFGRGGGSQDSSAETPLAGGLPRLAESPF

Binder	Relative cAMP EC50	cAMP Rel EC50 (1% HSA)	cAMP Rel EC50 (in the presence of 1% HSA)
B1	2.58 nM	436 nM	–
B2	3.52 nM	451 nM	–
B3	1.9 nM	–	257 nM
B4	3.06 nM	–	243 nM
B5	1.68 nM	–	192 nM
B6	1.74 nM	–	242 nM
B7	2.02 nM	–	215 nM
B8	1.54 nM	–	218 nM
B9	1.56 nM	–	202 nM
B10	1.8 nM	–	314 nM
B11	1.5 nM	–	278 nM

molecular target: hGLP-1R (Homo sapiens, UniProt P43220); test: cell-based or functional assay
Sequence (P43220 24-463): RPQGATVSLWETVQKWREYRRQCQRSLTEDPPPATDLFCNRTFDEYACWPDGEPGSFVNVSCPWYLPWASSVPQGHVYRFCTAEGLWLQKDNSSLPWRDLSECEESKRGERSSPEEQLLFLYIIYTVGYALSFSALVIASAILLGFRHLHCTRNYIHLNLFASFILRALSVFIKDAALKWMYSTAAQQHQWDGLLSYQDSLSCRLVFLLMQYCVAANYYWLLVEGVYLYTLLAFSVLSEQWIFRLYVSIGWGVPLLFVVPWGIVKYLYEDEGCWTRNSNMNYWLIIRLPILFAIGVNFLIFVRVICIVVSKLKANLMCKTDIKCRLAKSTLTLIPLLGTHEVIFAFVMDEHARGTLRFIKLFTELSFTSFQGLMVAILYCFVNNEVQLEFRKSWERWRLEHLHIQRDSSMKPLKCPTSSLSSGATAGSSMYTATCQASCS

Binder	Relative cAMP EC50	cAMP Rel EC50 (1% HSA)	cAMP Rel EC50 (in the presence of 1% HSA)
B1	0.292 nM	38.9 nM	–
B2	0.526 nM	44.8 nM	–
B3	0.418 nM	–	45.4 nM
B4	0.945 nM	–	82.3 nM
B5	0.765 nM	–	77.4 nM
B6	0.367 nM	–	44.2 nM
B7	0.51 nM	–	57.4 nM
B8	0.499 nM	–	59.5 nM
B9	0.544 nM	–	66.2 nM
B10	0.475 nM	–	61 nM
B11	0.727 nM	–	91.4 nM

molecular target: T1, human GIP receptor (human) (UniProt P48546); test: cell-based or functional assay
T1 sequence (looked up): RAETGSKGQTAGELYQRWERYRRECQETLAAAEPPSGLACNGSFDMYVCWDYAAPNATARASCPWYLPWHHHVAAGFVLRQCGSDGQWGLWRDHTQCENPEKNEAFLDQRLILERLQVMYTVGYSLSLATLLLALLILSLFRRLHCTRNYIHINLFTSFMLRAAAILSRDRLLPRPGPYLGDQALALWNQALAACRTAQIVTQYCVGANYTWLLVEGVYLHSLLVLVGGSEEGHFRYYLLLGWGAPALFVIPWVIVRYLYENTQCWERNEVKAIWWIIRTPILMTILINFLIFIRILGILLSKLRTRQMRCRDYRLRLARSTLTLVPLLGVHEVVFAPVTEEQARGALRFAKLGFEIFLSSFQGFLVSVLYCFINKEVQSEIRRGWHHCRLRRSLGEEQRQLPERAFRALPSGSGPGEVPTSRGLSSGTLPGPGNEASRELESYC

Binder	Relative cAMP EC50	cAMP Rel EC50 (1% HSA)	cAMP Rel EC50 (in the presence of 1% HSA)
B1	0.0774 nM	8.5 nM	–
B2	0.00907 nM	0.786 nM	–
B3	0.00756 nM	–	0.605 nM
B4	0.00992 nM	–	0.931 nM
B5	0.0109 nM	–	0.954 nM
B6	0.00708 nM	–	0.637 nM
B7	0.00725 nM	–	0.759 nM
B8	0.00924 nM	–	1.06 nM
B9	0.00897 nM	–	0.803 nM
B10	0.00663 nM	–	0.67 nM
B11	0.00883 nM	–	0.896 nM
